This note sets out measurements from US20240409634A1 (Janssen / Centocor, published 2024).

First the molecules themselves.
B1: scFv-VHH bispecific molecule JL5 x 5D3 (scFv (VL-L-VH)-L-VHH with C-tag) (bispecific antibody)
chain: QSVLTQPPSASGTPGQRVTISCSGSSSNIGSNIVNWYQQFPGTAPKLLIYSNNQRPSGVPDRVSGSKSGTSASLAISGLQSEDEADYYCAAWDDSLNGPVFGPGTKVTVLGGSEGKSSGSGSESKSTGGSQVQLQESGPGLVKPSETLSLTCSVSGASIRNYYWSWIRQTAGKGLEWLGHIYSTGNIHYNPSLKSRVTMSVDTSNNQFSLKLRSVTAADTAVYYCARDNGAALFDYWGQGTLVTVSSGGGGSEVQLVESGGGLVQAGGSLRLSCAASGRPFSNYAMGWFRQAPGKEREFVTVISWSGGSTYYADSVKGRFTISRDNAKNTVYLQMNSLKPEDTAVYYCAAQFSGASTVVAGTALDYDYWGQGTRVTVSSAAAEPEA
B2: scFv-VHH bispecific molecule JL4 x 5D3 (scFv (VL-L-VH)-L-VHH with C-tag) (bispecific antibody)
chain: DVVMTQSPLSLPVTLGQPASISCRSSQSLVYSDGNTYLNWFQQRPGQSPRRLIYKVSTRDSGVPDRFSGSGSGTDFTLKISRVEAEDVAVYYCLQGTHWPWTFGQGTKVEIKGGSEGKSSGSGSESKSTGGSQVQLVESGGGLVQPGGSLRLSCAASGITFSNYWMSWVRQAPGKGLEWVASIKRDGSDKYYVDSVKGRFTISRDNAKNSLSLQMHSLRAEDTAVYYCAKGEFDYWGQGTLVTVSSGGGGSEVQLVESGGGLVQAGGSLRLSCAASGRPFSNYAMGWFRQAPGKEREFVTVISWSGGSTYYADSVKGRFTISRDNAKNTVYLQMNSLKPEDTAVYYCAAQFSGASTVVAGTALDYDYWGQGTRVTVSSAAAEPEA
B3: scFv-VHH bispecific molecule JL3 x 6H4 (scFv (VL-L-VH)-L-VHH with C-tag) (bispecific antibody)
chain: QSVLTQPPSASGTPGQRVTISCSGSSSNIGSNIVNWYQQFPGTAPKLLLYSDNQRPSGVPDRFSGSKSGTSASLAISGLQSEDEADYYCAAWDDSLNGPVFGTGTKVTVLGGSEGKSSGSGSESKSTGGSQVQLQESGPGLVKPSETLSLTCSVSGGSIRNYYWSWIRQSAGKELEWFGHIFSTGHINYDSSLKSRVTMSVDTSNNQFSLKLRSVTAADTAVYYCARDNGAALFDFWGQGTLVTVSSGGGGSEVQLVESGGGLVQAGGSLRLSCAASGRPFSNYGMGWFRQAPGKKREFVAGISWSGGSTDYADSVKGRFTISRDNAKNTVYLQMNSLKPEDTAVYYCAAVFSGAETAYYPSDDYDYWGQGTQVTVSSAAAEPEA
B4: scFv-VHH bispecific molecule JL2 x 6H4 (scFv (VL-L-VH)-L-VHH with C-tag) (bispecific antibody)
chain: DIVMTQSPLSLPVTPGEPASISCRSSQSLLHSDGYNYLDWYLQKSGQSPQLLIYLGSYRASGVPDRFSGSGSGTDFTLKISRVEAEDVGIYYCMQVLQTPWTFGQGTKVEIKGGSEGKSSGSGSESKSTGGSEVQLVESGGGLVQPGGSLRLSCVVSGFTFSSYWMTWVRQAPGKGLEWVANIKQDGSERYYVDSVKGRFTISRDSAKNSLYLQMNSLRAEDTAVYYCAREVGYNWNQGGYFDYWGQGTLVTVSSGGGGSEVQLVESGGGLVQAGGSLRLSCAASGRPFSNYGMGWFRQAPGKKREFVAGISWSGGSTDYADSVKGRFTISRDNAKNTVYLQMNSLKPEDTAVYYCAAVFSGAETAYYPSDDYDYWGQGTQVTVSSAAAEPEA
B5: scFv-VHH bispecific molecule JL1 x 5D3 (scFv (VL-L-VH)-L-VHH with C-tag) (bispecific antibody)
chain: DIVMTQSPLSLPVTPGEPASISCKSSQSLLFSNGYKFLDWYLQRPGQSPQLLIYLGSYRASGVPDRFSGSGSGTDFTLKISRVEAEDVGLYYCMQALQTPPTFGGGTKVEIKGGSEGKSSGSGSESKSTGGSEVQLVESGGGLVQPGGSLKVSCEASGFTFSVSAIHWVRQASGKGLEWIGRIRSKGNSYATAYAASVKGRFTISRDDSKNTAYLQMDSLKTEDTAVYYCTRHNDKWNYYGLDVWGQGTTVTVSSGGGGSEVQLVESGGGLVQAGGSLRLSCAASGRPFSNYAMGWFRQAPGKEREFVTVISWSGGSTYYADSVKGRFTISRDNAKNTVYLQMNSLKPEDTAVYYCAAQFSGASTVVAGTALDYDYWGQGTRVTVSSAAAEPEA
B6: scFv-VHH bispecific molecule JL2 x 5D3 (scFv (VL-L-VH)-L-VHH with C-tag) (bispecific antibody)
chain: DIVMTQSPLSLPVTPGEPASISCRSSQSLLHSDGYNYLDWYLQKSGQSPQLLIYLGSYRASGVPDRFSGSGSGTDFTLKISRVEAEDVGIYYCMQVLQTPWTFGQGTKVEIKGGSEGKSSGSGSESKSTGGSEVQLVESGGGLVQPGGSLRLSCVVSGFTFSSYWMTWVRQAPGKGLEWVANIKQDGSERYYVDSVKGRFTISRDSAKNSLYLQMNSLRAEDTAVYYCAREVGYNWNQGGYFDYWGQGTLVTVSSGGGGSEVQLVESGGGLVQAGGSLRLSCAASGRPFSNYAMGWFRQAPGKEREFVTVISWSGGSTYYADSVKGRFTISRDNAKNTVYLQMNSLKPEDTAVYYCAAQFSGASTVVAGTALDYDYWGQGTRVTVSSAAAEPEA
B7: scFv-VHH bispecific molecule JL6 x 5D3 (scFv (VL-L-VH)-L-VHH with C-tag) (bispecific antibody)
chain: QSVLTQPPSASGTPGQRVTISCSGSSSNIGSNPVNWYQQLPGTAPKLLIYSNNQRPSGVPDRFSGSKSGTSASLAISGLQSEDEADYFCAAWDDSLNGPVFGGGTKLTVLGGSEGKSSGSGSESKSTGGSQVQLQESGPGLVKPSETLSLTCTVSGGSISSYYWGWIRQPPGKGLEWIGYIYYSGSTNYNPSLKSRVTISVDTSKNQFSLKLSSVTAADTAVYYCARMWEILGFDPWGQGTLVTVSSGGGGSEVQLVESGGGLVQAGGSLRLSCAASGRPFSNYAMGWFRQAPGKEREFVTVISWSGGSTYYADSVKGRFTISRDNAKNTVYLQMNSLKPEDTAVYYCAAQFSGASTVVAGTALDYDYWGQGTRVTVSSAAAEPEA
B8: scFv-VHH bispecific molecule JL6 x 6H4 (scFv (VL-L-VH)-L-VHH with C-tag) (bispecific antibody)
chain: QSVLTQPPSASGTPGQRVTISCSGSSSNIGSNPVNWYQQLPGTAPKLLIYSNNQRPSGVPDRFSGSKSGTSASLAISGLQSEDEADYFCAAWDDSLNGPVFGGGTKLTVLGGSEGKSSGSGSESKSTGGSQVQLQESGPGLVKPSETLSLTCTVSGGSISSYYWGWIRQPPGKGLEWIGYIYYSGSTNYNPSLKSRVTISVDTSKNQFSLKLSSVTAADTAVYYCARMWEILGFDPWGQGTLVTVSSGGGGSEVQLVESGGGLVQAGGSLRLSCAASGRPFSNYGMGWFRQAPGKKREFVAGISWSGGSTDYADSVKGRFTISRDNAKNTVYLQMNSLKPEDTAVYYCAAVFSGAETAYYPSDDYDYWGQGTQVTVSSAAAEPEA
B9: scFv-VHH bispecific molecule JL1 x 6H4 (scFv (VL-L-VH)-L-VHH with C-tag) (bispecific antibody)
chain: DIVMTQSPLSLPVTPGEPASISCKSSQSLLFSNGYKFLDWYLQRPGQSPQLLIYLGSYRASGVPDRFSGSGSGTDFTLKISRVEAEDVGLYYCMQALQTPPTFGGGTKVEIKGGSEGKSSGSGSESKSTGGSEVQLVESGGGLVQPGGSLKVSCEASGFTFSVSAIHWVRQASGKGLEWIGRIRSKGNSYATAYAASVKGRFTISRDDSKNTAYLQMDSLKTEDTAVYYCTRHNDKWNYYGLDVWGQGTTVTVSSGGGGSEVQLVESGGGLVQAGGSLRLSCAASGRPFSNYGMGWFRQAPGKKREFVAGISWSGGSTDYADSVKGRFTISRDNAKNTVYLQMNSLKPEDTAVYYCAAVFSGAETAYYPSDDYDYWGQGTQVTVSSAAAEPEA
B10: scFv-VHH bispecific molecule JL3 x 5D3 (scFv (VL-L-VH)-L-VHH with C-tag) (bispecific antibody)
chain: QSVLTQPPSASGTPGQRVTISCSGSSSNIGSNIVNWYQQFPGTAPKLLLYSDNQRPSGVPDRFSGSKSGTSASLAISGLQSEDEADYYCAAWDDSLNGPVFGTGTKVTVLGGSEGKSSGSGSESKSTGGSQVQLQESGPGLVKPSETLSLTCSVSGGSIRNYYWSWIRQSAGKELEWFGHIFSTGHINYDSSLKSRVTMSVDTSNNQFSLKLRSVTAADTAVYYCARDNGAALFDFWGQGTLVTVSSGGGGSEVQLVESGGGLVQAGGSLRLSCAASGRPFSNYAMGWFRQAPGKEREFVTVISWSGGSTYYADSVKGRFTISRDNAKNTVYLQMNSLKPEDTAVYYCAAQFSGASTVVAGTALDYDYWGQGTRVTVSSAAAEPEA
B11: scFv-VHH bispecific molecule JL5 x 6H4 (scFv (VL-L-VH)-L-VHH with C-tag) (bispecific antibody)
chain: QSVLTQPPSASGTPGQRVTISCSGSSSNIGSNIVNWYQQFPGTAPKLLIYSNNQRPSGVPDRVSGSKSGTSASLAISGLQSEDEADYYCAAWDDSLNGPVFGPGTKVTVLGGSEGKSSGSGSESKSTGGSQVQLQESGPGLVKPSETLSLTCSVSGASIRNYYWSWIRQTAGKGLEWLGHIYSTGNIHYNPSLKSRVTMSVDTSNNQFSLKLRSVTAADTAVYYCARDNGAALFDYWGQGTLVTVSSGGGGSEVQLVESGGGLVQAGGSLRLSCAASGRPFSNYGMGWFRQAPGKKREFVAGISWSGGSTDYADSVKGRFTISRDNAKNTVYLQMNSLKPEDTAVYYCAAVFSGAETAYYPSDDYDYWGQGTQVTVSSAAAEPEA
B12: scFv-VHH bispecific molecule JL4 x 6H4 (scFv (VL-L-VH)-L-VHH with C-tag) (bispecific antibody)
chain: DVVMTQSPLSLPVTLGQPASISCRSSQSLVYSDGNTYLNWFQQRPGQSPRRLIYKVSTRDSGVPDRFSGSGSGTDFTLKISRVEAEDVAVYYCLQGTHWPWTFGQGTKVEIKGGSEGKSSGSGSESKSTGGSQVQLVESGGGLVQPGGSLRLSCAASGITFSNYWMSWVRQAPGKGLEWVASIKRDGSDKYYVDSVKGRFTISRDNAKNSLSLQMHSLRAEDTAVYYCAKGEFDYWGQGTLVTVSSGGGGSEVQLVESGGGLVQAGGSLRLSCAASGRPFSNYGMGWFRQAPGKKREFVAGISWSGGSTDYADSVKGRFTISRDNAKNTVYLQMNSLKPEDTAVYYCAAVFSGAETAYYPSDDYDYWGQGTQVTVSSAAAEPEA

For this assay, the target named is human CD33 on CD33-expressing THP-1 cells (human, UniProt P20138 18-364). Put plainly: cell-based or functional assay.
Chain of human CD33 on CD33-expressing THP-1 cells (P20138 18-364): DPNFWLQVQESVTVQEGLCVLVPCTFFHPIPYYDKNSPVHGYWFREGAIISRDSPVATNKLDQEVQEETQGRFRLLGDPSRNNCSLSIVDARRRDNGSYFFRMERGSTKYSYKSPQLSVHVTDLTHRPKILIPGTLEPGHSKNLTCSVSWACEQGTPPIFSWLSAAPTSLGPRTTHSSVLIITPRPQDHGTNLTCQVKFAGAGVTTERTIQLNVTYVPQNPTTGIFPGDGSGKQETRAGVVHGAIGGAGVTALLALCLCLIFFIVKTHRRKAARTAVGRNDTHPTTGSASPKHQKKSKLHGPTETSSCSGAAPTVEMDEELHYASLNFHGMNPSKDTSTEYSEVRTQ
On to B1, for which the “Cytotox EC50 (nM) Donor 104” value is ~0.00093 nM and the “Cytotox EC50 (nM) Donor 156” value is ~0.0007 nM.

For B2, the “Cytotox EC50 (nM) Donor 104” value was ~0.027 nM and the “Cytotox EC50 (nM) Donor 156” value amounted to 0.023 nM.

As for B3, the “Cytotox EC50 (nM) Donor 104” value is ~0.00079 nM and the “Cytotox EC50 (nM) Donor 156” value is ~0.00099 nM.

For the molecule B4, the “Cytotox EC50 (nM) Donor 104” value was ~0.00097 nM and the “Cytotox EC50 (nM) Donor 156” value is ~0.00077 nM.

For the molecule B5, the “Cytotox EC50 (nM) Donor 104” value was ~0.61 nM and the “Cytotox EC50 (nM) Donor 156” value is ~0.43 nM.

With B6, the “Cytotox EC50 (nM) Donor 104” value was determined as 0.0027 nM and the “Cytotox EC50 (nM) Donor 156” value was ~0.0019 nM.

Regarding B7, the “Cytotox EC50 (nM) Donor 104” value was 0.0044 nM and the “Cytotox EC50 (nM) Donor 156” value was determined as 0.0029 nM.

Turning to B8, the “Cytotox EC50 (nM) Donor 104” value worked out at 0.0012 nM and the “Cytotox EC50 (nM) Donor 156” value worked out at 0.0013 nM.

As for B9, the “Cytotox EC50 (nM) Donor 104” value is 0.011 nM and the “Cytotox EC50 (nM) Donor 156” value amounted to 0.0098 nM.

Take B10: the “Cytotox EC50 (nM) Donor 104” value is ~0.0013 nM and the “Cytotox EC50 (nM) Donor 156” value was ~0.0008 nM.

On to B11, for which the “Cytotox EC50 (nM) Donor 104” value was ~0.0013 nM and the “Cytotox EC50 (nM) Donor 156” value is ~0.0019 nM.

In the case of B12, the “Cytotox EC50 (nM) Donor 104” value is ~0.0004 nM and the “Cytotox EC50 (nM) Donor 156” value was ~0.00035 nM.
